The numbers were not newly measured in paper PMC11806408, which cites them from elsewhere.

This series has as its target BMP-10 GF growth factor (Homo sapiens) (UniProt O95393).

Chain of BMP-10 PD prodomain (O95393 22-316): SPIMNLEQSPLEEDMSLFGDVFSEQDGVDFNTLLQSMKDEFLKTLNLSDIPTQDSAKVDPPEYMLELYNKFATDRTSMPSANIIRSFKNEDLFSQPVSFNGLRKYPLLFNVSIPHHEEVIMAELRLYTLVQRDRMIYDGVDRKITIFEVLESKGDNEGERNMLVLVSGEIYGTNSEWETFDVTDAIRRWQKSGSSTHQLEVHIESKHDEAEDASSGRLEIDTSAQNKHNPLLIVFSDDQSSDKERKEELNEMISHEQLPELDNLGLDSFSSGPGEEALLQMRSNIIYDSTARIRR
Chain of BMP-10 GF growth factor (Homo sapiens) (O95393 317-424): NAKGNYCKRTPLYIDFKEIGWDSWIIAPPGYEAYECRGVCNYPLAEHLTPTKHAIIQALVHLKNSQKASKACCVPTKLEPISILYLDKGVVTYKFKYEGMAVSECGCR

For the substance “BMP-10 PD prodomain (from UniProt O95393)”, the Kd is 7 nM.
